Measured values from patent publication US20070172423A1, “Composition and method for modulating vasculogenesis for angiogenesis” (priority 1998, published 2007).

Columns and labels:
[1] = tested on: endothelial progenitor cells (EPCs); assay: EPC mobilization assay; assay type: in vivo, mice
Method: For EPC mobilization assay, mice were treated with PDGF-CC protein (4.5 μg/day) immediately after femoral artery ligation using subcutaneously implanted osmotic minipumps (Alzet, type 2001). After two or five days, mice were sacrificed and spleens harvested for EPC analysis using procedures described previously (Asahara et al., Circ Res, 1999 85:221-8; Dimmeler et al., J. Clin. Invest., 2001 108:391-397). Spleens were mechanically minced using syringe plungers and laid over Ficoll to isolate splenocytes. Splenocytes were seeded into fibronectin-coated 24-well plates in 0.5 ml EBM medium. After three weeks of culturing, adherent cells were stained for Dil-Ac-LDL/lectin and number of the positive cells counted. Late outgrowth EPCs (after 3 weeks of culture) were identified by metabolic uptake of DiI-acetylated-LDL (Molecular Probes) and positive staining of Alexa 488-labeled isolectin B4 (Molecular Probes). Quantification of the EPC density was performed by confocal microscopy in five microscopic fields at 200× magnification, and average EPC density calculated.
To examine the possible mechanism of how PDGF-CC stimulates vessel growth and maturation, we next assessed its effects on vascular endothelial progenitor cells (EPCs). […] By scoring after 3 weeks, only late-outgrowth EPCs, but not surviving sloughed-off endothelial cells, are selectively assayed (Lin et al., J Clin Invest, 2000 105:71-7; Rafii, S., J Clin Invest, 2000 105:17-9).

[2] = tested on: human foreskin fibroblasts; assay: Mitogenicity for fibroblasts ([3H]thymidine incorporation); assay type: cell-based; settings: 3, 10 or 30 ng/ml, 24 hours
Method: The assay was performed essentially as described in Mori et al., J. Biol. Chem., 1991 266:21158-21164. Serum starved human foreskin fibroblasts were incubated for 24 hours with 1 ml of serum-free medium supplemented with 1 mg/ml BSA and 3 ng/ml, 10 ng/ml or 30 ng/ml of full length PDGF-CC (flPDGF-CC), truncated PDGF-CC (cPDGF-CC) or PDGF-AA in the presence of […] [3H]thymidine. After trichloroacetic acid (TCA) precipitation, the incorporation of [3H]thymidine into DNA was determined using a beta-counter. […] PDGF-AA is included in the experiment as a control.

[3] = biological target: T1, PDGFR-α (Mus musculus, UniProt P26618); assay: PDGFR-α activation in infarct border region (immunoprecipitation, pTyr Western blot); assay type: in vivo; settings: compared to control, after coronary ligation
T1 construct: from tissue; host or cells: mouse heart, infarct border region

[4] = biological target: PDGF beta receptors (Homo sapiens, UniProt P09619); assay: Competition with 125I-PDGF-BB for binding to PAE-1 cells expressing PDGF beta-receptor; design: expressed in transfected cells; settings: 5 ng/ml 125I-PDGF-BB tracer, on ice 90 minutes
Method: Next, full length and truncated PDGF-C were tested for their capacity to bind to human PDGF receptors alpha and beta by analyzing their abilities to compete with PDGF-BB for binding to PDGF receptors. The binding experiments were performed on porcine aortic endothelial-1 (PAE-1) cells stably expressing the human PDGF receptors alpha and beta (Eriksson et al., EMBO J, 1992, 11, 543-550). Binding experiments were performed essentially as in Heldin et al. (EMBO J, 1988, 7:1387-1393). Different concentrations of human full-length and truncated PDGF-C, or human PDGF-BB were mixed with 5 ng/ml of ^125I-PDGF-BB in binding buffer (PBS containing 1 mg/ml of bovine serum albumin). Aliquots were incubated with the receptor expressing PAE-1 cells plated in 24-well culture dishes on ice for 90 minutes. After three washes with binding buffer, cell-bound 125]-PDGF-BB was extracted by lysis of cells in 20 mM Tris-HCl, pH 7.5, 10% glycerol, 1% Triton X-100. The amount of cell bound radioactivity was determined in a gamma-counter. A standard curve for the binding of ^125I-labeled PDGF BB homodimers to PAE-1 cells expressing PDGF alpha-receptor is shown in FIG. 18.

[5] = biological target: PDGF alpha receptors (Homo sapiens, UniProt P16234); assay: Binding of radiolabeled truncated PDGF-C to PAE-1 cells expressing PDGF alpha receptors; design: expressed in transfected cells; host or cells: porcine aortic endothelial (PAE-1) cells; settings: 125I-labeled protein, on ice 90 minutes
Method: To assess the interactions between truncated PDGF-C and the PDGF alpha and beta receptors, truncated PDGF-C was tested for its capacity to bind to porcine aortic endothelial-1 (PAE-1) cells expressing PDGF alpha or beta receptors, respectively (Eriksson et al., EMBO J, 1992 11:543-550). The binding experiments were performed essentially as described in Heldin et al. (EMBO J, 1988 7:1387 1393). Five micrograms of truncated PDGF-C protein in ten microliters of sodium borate buffer was radiolabeled using the Bolton-Hunter reagent (Amersham) to a specific activity of 4×10^5 cpm/ng. Different concentrations of radiolabeled truncated PDGF-C, with or without added unlabeled protein, in binding buffer (PBS containing 1 mg/ml of bovine serum albumin) was added to the receptor expressing PAE-1 cells plated in 24-well culture dishes on ice for 90 minutes. After three washes with binding buffer, cell-bound ^125I-labeled PDGF-C was extracted by lysis of cells in 20 mM Tris-HCl, pH 7.5, 10% glycerol, 1% Triton X-100. The amount of cell-bound radioactivity was determined in a gamma-counter. Non-specific binding was estimated by including a 100-fold molar excess of truncated PDGF-C in some experiments. […] The binding was specific as radiolabeled PDGF-C was quantitatively displaced by a 100-fold molar excess of unlabeled protein.

Chain of PDGF beta receptors (P09619 33-1106): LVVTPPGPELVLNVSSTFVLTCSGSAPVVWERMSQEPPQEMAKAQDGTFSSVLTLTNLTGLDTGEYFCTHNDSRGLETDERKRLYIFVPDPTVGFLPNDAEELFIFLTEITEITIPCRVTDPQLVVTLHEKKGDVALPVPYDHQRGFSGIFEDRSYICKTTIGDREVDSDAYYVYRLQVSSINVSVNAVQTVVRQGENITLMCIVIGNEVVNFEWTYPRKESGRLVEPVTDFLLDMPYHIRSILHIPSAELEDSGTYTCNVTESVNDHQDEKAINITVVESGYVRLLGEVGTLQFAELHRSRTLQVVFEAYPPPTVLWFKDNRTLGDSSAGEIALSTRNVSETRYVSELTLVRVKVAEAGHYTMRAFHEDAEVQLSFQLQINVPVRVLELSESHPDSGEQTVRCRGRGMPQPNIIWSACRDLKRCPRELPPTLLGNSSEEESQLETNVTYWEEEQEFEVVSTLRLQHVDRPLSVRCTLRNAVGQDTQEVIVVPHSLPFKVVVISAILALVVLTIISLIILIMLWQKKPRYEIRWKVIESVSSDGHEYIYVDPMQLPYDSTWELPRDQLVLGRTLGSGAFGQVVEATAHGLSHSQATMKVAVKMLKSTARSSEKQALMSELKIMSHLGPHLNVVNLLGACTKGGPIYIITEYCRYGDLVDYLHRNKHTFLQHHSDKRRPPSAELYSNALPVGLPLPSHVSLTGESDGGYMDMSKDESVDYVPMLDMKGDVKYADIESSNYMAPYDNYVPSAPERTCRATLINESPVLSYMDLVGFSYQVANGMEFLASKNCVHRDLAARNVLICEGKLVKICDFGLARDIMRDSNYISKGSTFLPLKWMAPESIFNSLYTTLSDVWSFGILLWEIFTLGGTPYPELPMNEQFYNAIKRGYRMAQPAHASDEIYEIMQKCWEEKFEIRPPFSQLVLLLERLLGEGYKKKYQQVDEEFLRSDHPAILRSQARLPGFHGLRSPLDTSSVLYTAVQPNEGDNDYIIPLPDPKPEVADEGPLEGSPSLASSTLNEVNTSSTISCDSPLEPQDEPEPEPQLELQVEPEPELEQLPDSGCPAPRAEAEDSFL
T1 sequence (P26618 25-1089): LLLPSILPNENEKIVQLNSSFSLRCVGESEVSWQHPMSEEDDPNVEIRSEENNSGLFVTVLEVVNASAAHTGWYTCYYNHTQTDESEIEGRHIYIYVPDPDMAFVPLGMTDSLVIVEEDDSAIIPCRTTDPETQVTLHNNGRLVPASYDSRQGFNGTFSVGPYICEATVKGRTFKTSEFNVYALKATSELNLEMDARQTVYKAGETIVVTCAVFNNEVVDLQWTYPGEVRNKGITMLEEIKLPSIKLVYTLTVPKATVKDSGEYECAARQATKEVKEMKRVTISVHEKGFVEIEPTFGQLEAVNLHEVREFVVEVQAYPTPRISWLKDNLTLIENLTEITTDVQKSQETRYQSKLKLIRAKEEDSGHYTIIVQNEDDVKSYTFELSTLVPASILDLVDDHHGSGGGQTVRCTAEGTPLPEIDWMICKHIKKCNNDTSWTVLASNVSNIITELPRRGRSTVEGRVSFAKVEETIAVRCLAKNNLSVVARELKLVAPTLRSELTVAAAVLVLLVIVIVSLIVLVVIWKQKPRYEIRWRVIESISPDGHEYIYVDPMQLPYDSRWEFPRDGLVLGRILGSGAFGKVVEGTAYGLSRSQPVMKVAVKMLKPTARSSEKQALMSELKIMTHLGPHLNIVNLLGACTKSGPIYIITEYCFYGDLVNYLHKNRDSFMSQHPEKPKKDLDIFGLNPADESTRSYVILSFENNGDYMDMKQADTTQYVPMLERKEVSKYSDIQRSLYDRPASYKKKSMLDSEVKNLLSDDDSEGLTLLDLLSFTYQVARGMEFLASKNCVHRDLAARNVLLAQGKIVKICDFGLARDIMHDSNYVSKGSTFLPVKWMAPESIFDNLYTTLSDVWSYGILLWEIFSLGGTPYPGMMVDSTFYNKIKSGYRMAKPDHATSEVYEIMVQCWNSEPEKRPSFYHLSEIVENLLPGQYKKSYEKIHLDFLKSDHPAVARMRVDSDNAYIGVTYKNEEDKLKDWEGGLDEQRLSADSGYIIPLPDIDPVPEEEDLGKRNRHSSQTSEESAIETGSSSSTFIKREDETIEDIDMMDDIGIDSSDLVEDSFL
Chain of PDGF alpha receptors (P16234 24-1089): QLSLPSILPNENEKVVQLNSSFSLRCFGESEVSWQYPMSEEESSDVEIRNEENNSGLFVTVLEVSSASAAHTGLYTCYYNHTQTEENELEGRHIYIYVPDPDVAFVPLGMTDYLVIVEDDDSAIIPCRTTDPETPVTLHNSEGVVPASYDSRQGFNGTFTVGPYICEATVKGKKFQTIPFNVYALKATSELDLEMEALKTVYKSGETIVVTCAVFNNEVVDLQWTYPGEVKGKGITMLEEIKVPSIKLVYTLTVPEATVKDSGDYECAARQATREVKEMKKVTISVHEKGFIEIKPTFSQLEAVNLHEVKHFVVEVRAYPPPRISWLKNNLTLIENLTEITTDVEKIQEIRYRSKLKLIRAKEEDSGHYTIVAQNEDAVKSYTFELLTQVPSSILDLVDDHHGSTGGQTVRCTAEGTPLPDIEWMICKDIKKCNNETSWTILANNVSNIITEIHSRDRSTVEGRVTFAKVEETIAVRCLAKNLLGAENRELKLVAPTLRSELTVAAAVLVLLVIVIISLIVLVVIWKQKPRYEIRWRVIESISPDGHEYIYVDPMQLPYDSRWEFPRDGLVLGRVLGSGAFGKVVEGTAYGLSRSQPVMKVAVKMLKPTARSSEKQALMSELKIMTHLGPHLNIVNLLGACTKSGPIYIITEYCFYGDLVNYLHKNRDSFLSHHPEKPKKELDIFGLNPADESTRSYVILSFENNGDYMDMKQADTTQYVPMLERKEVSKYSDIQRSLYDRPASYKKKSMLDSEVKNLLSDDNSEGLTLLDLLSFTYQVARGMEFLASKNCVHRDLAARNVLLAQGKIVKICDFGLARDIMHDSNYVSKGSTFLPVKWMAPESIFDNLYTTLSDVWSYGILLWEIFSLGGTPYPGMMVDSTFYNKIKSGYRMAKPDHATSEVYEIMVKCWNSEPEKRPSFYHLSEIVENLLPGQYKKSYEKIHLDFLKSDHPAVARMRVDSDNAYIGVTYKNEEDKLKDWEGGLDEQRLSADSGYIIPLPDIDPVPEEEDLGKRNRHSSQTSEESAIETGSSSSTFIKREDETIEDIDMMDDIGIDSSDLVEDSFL

B1: PDGF-CC: recombinant human PDGF-CC core domain homodimer, residues 230-345 of full-length PDGF-C (SEQ ID NO:40), produced in baculovirus infected insect cells (protein)
chain: GRKSRVVDLNLLTEEVRLYSCTPRNFSVSIREELKRTDTIFWPGCLLVKRCGGNCACCLHNCNECQCVPSKVTKKYHEVLQLRPKTGVRGLHKSLTDVALEHHEECDCVCRGSTGG
modifications: homodimer; PDGF-C core domain
For B1, the “mobilization of EPCs” value ([1]; baseline conditions (no ischemia)) was “did not affect”, the “augmentation of EPC mobilization” value ([1]; femoral artery ligation, day five) was “persisted to day five, albeit at a lower level” and the “augmentation of EPC mobilization above control group” value ([1]; femoral artery ligation, two days, 4.5 μg/day via minipump) was “approximately 3 fold”. The “augmentation of EPC mobilization compared with the vehicle group (FIG. 38 legend)” value ([1]; from day 2 to day 5 after hind limb ischemia) was about 4 fold, the “mitogenic activity on fibroblasts” value [2] was “potent mitogen” and the “amount of active PDGFR-α in the border region” value [3] was “increased”. The “competition for binding to the PDGF beta-receptor” value [4] was “failed to compete” and the “binding to cells expressing PDGF alpha receptors” value [5] was “binds”.
